Source: patent US20210253713A1 (ABEXXA BIOLOGICS, published 2021)

B1: MAB-031 (anti-HLA-E/…) (antibody, V domains shown)
VH: QVQLQQSGPELVKPGASVKMSCKASGYTFTDYVISWVKQRTGQGLEWIGEIYPGNNTTYYNDNFRGKATLTVDKSSSTAYMQLSSLTSEDSAVYYCARESLGIYYGSTYKGLYAMDYWGQGTTLTVSS
VL: QIVLTQSPAIMSASPGEKVTITCSASSSVSYMHWFQQKPGTSPKLWIYSTSNLASGVPARFSGSGSGTSYSLTISRMEAEDAATYYCQQRSSYPPTFGAGTKLELKR
notes: also called MAB31; MAB-31
B2: MAB-036 (anti-HLA-E/…) (antibody, V domains shown)
VH: EVQLVESGGGLVQPGGSLRLSCAASGFTFSSYAIHWVRQAPGKGLEWVARIAYGGGATRYADSVKGRFTISADTSKNTAYLQMNSLRAEDTAVYYCAKGLSNFDYWGQGTLVTVSS
VL: DIQMTQSPSSLSASVGDRVTITCRASQSISSYLNWYQQKPGKAPKLLIYNAAFLYSGVPSRFSGSRSGTDFTLTISSLQPEDFATYYCQQAATYPATFGQGTKVEIK
notes: Full-length human IgG1 (pFUSE vector system, human kappa); CDRs of R4Clone #1 mutated light chain were grafted onto trastuzumab VH and VL frameworks; also called MAB36

Key:
[1] = target: T1, HLA-E/… (human, UniProt P13747 22-297; P61769 21-119, limits assumed); test: ELISA, biotin-labeled complex on neutravidin plates, soluble bivalent IgG1, anti-human-HRP
T1 construct: Biotin-labeled control complex captured on neutravidin plates through a C-terminal BirA tag; also called control HLA-E/peptide complex
Procedure: (§1) To further evaluate the binding specificity and detection sensitivity of MAB-031 and MAB-036, a second ELISA was performed. For this assay, neutravidin coated plates were used to capture biotin-labeled HLA-E/peptide complexes. Because the HLA-E/peptide complexes have a single biotin molecule conjugated to the c-terminal end BirA tag, the immobilization of these complexes results in having the molecules lined up in a homogenous directional orientation. After incubation, unbound biotin-labeled HLA-E/peptide complexes are removed by rinsing the plate in a PBS+tween-20 buffer solution. MAB31 and MAB36 were then added to wells at concentrations that ranged from 1 ug/ml to 0.0001 ug/ml. Incubation was carried out for 1 hr, wells were rinsed and bound MAB was detected using a 1:2500 dilution of a goat anti-human-HRP conjugate. The assay was developed by adding the TMB substrate solution was added to wells and developed for 10 min before adding stop solution to terminate the reaction.

[2] = target: T2, HLA-E/… (human, UniProt P13747 22-297; P61769 21-119, limits assumed); test: as above; remark: listed apart in the source
T2 construct: Biotin-labeled control complex captured on neutravidin plates through a C-terminal BirA tag; also called control HLA-E/peptide complex
Procedure: as §1

[3] = target: T3, HLA-E/… (human, UniProt P13747 22-297; P61769 21-119, limits assumed); test: as above
T3 construct: Biotin-labeled control complex, used in both ELISA formats; also called control HLA-E/peptide complex
Procedure: as §1

[4] = target: T4, HLA-E/… (human, UniProt P13747 22-297; P61769 21-119, limits assumed); test: as above; remark: listed apart in the source
T4 construct: Biotin-labeled control complex captured on neutravidin plates through a C-terminal BirA tag; also called control HLA-E/peptide complex
Procedure: as §1

[5] = target: T5, HLA-E/… (human, UniProt P13747 22-297; P61769 21-119, limits assumed); test: as above; remark: listed apart in the source
T5 construct: Biotin-labeled control complex captured on neutravidin plates through a C-terminal BirA tag; also called control HLA-E/peptide complex
Procedure: as §1

[6] = target: T6, HLA-E/… (human, UniProt P13747 22-297; P61769 21-119, limits assumed); test: ELISA, antibody captured on Protein-A wells, soluble biotin-labeled HLA-E/peptide complex, SA-HRP
T6 construct: Soluble biotin-labeled control complex; also called control HLA-E/peptide complex
Procedure: (§2) The isolated scFv VL and VH domains were cloned into pFUSE-hIgG1-Fc and pFUSE2-CLIg-hk plasmids, respectively and plasmid DNA was prepared using standard protocol and used to co-transfect a 200 ml culture of Expi-293 cells. Following the manufacturer's instructions, supernatants were harvested at day 5 post-transfection for antibody purification using Protein-A coated beads. Next, the purified mouse-human chimeric IgG1 antibody, MAB-031 and the fully human antibody, MAB-036 were characterized for binding specificity and sensitivity by ELISA. In brief, Protein-A coated 96-wells were used to capture either MAB-031 or MAB-036 added to wells at a concentration of 10 ug/ml. After incubation for 60 min, wells were washed using PBS (pH 7.4)+0.1% Tween-20 and soluble biotin-labeled HLA-E/peptide complexes were added to individual wells at concentrations ranging from 0.25 to 0.0625 ug/ml. Wells were washed 3× using a solution of PBS+Tween-20 and then streptavidin-Horseradish peroxidase (SA-HRP) conjugate was added to wells and incubated for 30 min. One final wash was done and the substrate solution containing 3,3′,5,5′-tetramethylbenzidine (TMB) was added to wells and developed for 10 min before adding stop solution (0.16M sulfuric acid) to terminate the reaction.

[7] = target: T7, HLA-E/… (human, UniProt P13747 22-297; P61769 21-119, limits assumed); test: as above; remark: listed apart in the source
T7 construct: Soluble biotin-labeled control complex; also called control HLA-E/peptide complex
Procedure: as §2

Row | Binder | binding result [1] | binding result [2] | binding result [3] | binding result [4] | binding result [5] | binding result [6] | binding result [7]
1 | B1 | no binding (tested: 1 ug/ml to 0.0001 ug/ml) | no binding (tested: 1 ug/ml to 0.0001 ug/ml) | no binding (tested: 1 ug/ml to 0.0001 ug/ml) | no binding (tested: 1 ug/ml to 0.0001 ug/ml) | no binding (tested: 1 ug/ml to 0.0001 ug/ml) | no binding | no binding
2 | B2 | no binding (tested: 1 ug/ml to 0.0001 ug/ml) | no binding (tested: 1 ug/ml to 0.0001 ug/ml) | no binding (tested: 1 ug/ml to 0.0001 ug/ml) | no binding (tested: 1 ug/ml to 0.0001 ug/ml) | no binding (tested: 1 ug/ml to 0.0001 ug/ml) | no binding | no binding
